# FireProtDB (doi:10.1046/j.1432-1327.1999.00751.x)
# Several values for one entry are separate records, joined by “and”; a condition that tells them apart may be missing. Equal entries are not always repeated.
# B1: Azurin, P00282 (parent)
# chain: MLRKLAAVSLLSLLSAPLLAAECSVDIQGNDQMQFNTNAITVDKSCKQFTVNLSHPGNLPKNVMGHNWVLSTAADMQGVVTDGMASGLDKDYLKPDDSRVIAHTKLIGSGEKDSVTFDVSKLKEGEQYMFFCTFPGHSALMKGTLTLK
# Variants of: B1
# Conditions: Pseudomonas aeruginosa (strain ATCC 15692 / DSM 22644 / CIP 104116 / JCM 14847 / LMG 12228 / 1C / PRS 101 / PAO1); pH 7.2; 20 °C; GdnHCl; CD + Fluorescence; Tris-HCl 50 mM; reversible: yes; structure 5AZU; whole UniProt chain shown
Variant,ddG of mutation (higher = less stable),denaturant m value,denaturant midpoint (higher = more stable),unfolding free energy
MLRKLAAVSLLSLLSAPLLAAECSVDSQGNDQMQFNTNAITVDKSCKQFTVNLSHPGNLPKNVMGHNWVLSTAADMQGVVTDGMASGLDKDYLKPDDSRVIAHTKLIGSGEKDSVTFDVSKLKEGEQYMFFCTFPGHSALMKGTLTLK [I27S],3.6 kcal/mol and 3 kcal/mol,3.6 kcal/mol/M and 3.4 kcal/mol/M,1.61 M and 1.02 M,5.8 kcal/mol and 3.4 kcal/mol
MLRKLAAVSLLSLLSAPLLAAECSVDIQGNDQMQFNTNAITVDKSCKQFTVNLSHPGNLPKNVMGHNWVLSTAADMQGVVTDGMASGLDKDYLKPDDSRVIAHTKLIGSGEKDSVTFDVSKLKEGEQYMSFCTFPGHSALMKGTLTLK [F130S],4.6 kcal/mol and 3.7 kcal/mol,3.6 kcal/mol/M and 3.2 kcal/mol/M,1.24 M and 0.86 M,4.8 kcal/mol and 2.7 kcal/mol
